Reference: the supplement of paper PMC10724198
± gives the standard deviation of the averaged measurements.

Test system: Saccharomyces cerevisiae
Experiment: protein stability index of tFT-peptide fusion (C-terminal peptide) (PSI (0-1 scale)); higher = more stable (slower turnover)
Settings: genetic background: wild type; temperature: 30 C
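Also: PSI is a weighted mean of sequencing reads over stability bins, variants kept only with over 10 reads, mCherry proximal and sfGFP distal, peptide attached via GGGS linker.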

Sequence	protein stability index
EQNKQPEKETYN	0.625 ± 0.076
VSSCSGVLLCVP	0.544 ± 0.016
SRALSPRAPFGN	0.76 ± 0.15
DHRELPRSRIGT	0.673 ± 0.015
RPCSVPFSNTSP	0.666 ± 0.0067
SSLPDSPLNRER	0.693 ± 0.038
KSYKRICTKKSR	0.782 ± 0.096
GAVVLAGWGVLK	0.718 ± 0.028
GFTLCPVSLGYF	0.688 ± 0.017
SRCIIGILTRNF	0.6836 ± 0.0035
LPPSPPPPPRQS	0.739 ± 0.013
YVVCMNKSSFRG	0.769 ± 0.042
CPRLDVSSGFSW	0.694 ± 0.025
IPPSSLSSPLPP	0.704 ± 0.019
AVEGVSEVSLSG	0.656 ± 0.019
ADVVVGWWVSGW	0.791 ± 0.1
GVSAGLRGGGGA	0.651 ± 0.022
WDLPKTLCSKYT	0.727 ± 0.013
KSSAGAGQCPLS	0.712 ± 0.019
FVLRFVLSLVFF	0.494 ± 0.083
DLYVADNCPNSP	0.662 ± 0.1
CLSPSSHLPSVT	0.685 ± 0.021
GVICALPPVVGR	0.685 ± 0.071
WPLVLSYRKESA	0.803 ± 0.22
PHLPPQPPSPPA	0.716 ± 0.045
LPPPRPLPRPCP	0.748 ± 0.096

Sequence	protein stability index
TPRSCTLPTPPP	0.606 ± 0.051
QKPVQGICQEAN	0.628 ± 0.035
AAPDLARPPLLR	0.685 ± 0.018
LRTKRGKREEYD	0.73 ± 0.015
REKLINEKRIRR	0.704 ± 0.012
PLPSVLFCLTRW	0.665 ± 0.02
GRSDAPVPFDPP	0.561 ± 0.0098
KKKVEIKCRKRQ	0.667 ± 0.0067
LVFSTLGSCFDG	0.685 ± 0.0099
ASLAPTLPPPPQ	0.677 ± 0.021
LGPDSCRLPLAQ	0.746 ± 0.067
YLCEATFLLTWL	0.618 ± 0.024
PRHISIHPNATP	0.705 ± 0.045
PLRPLPTPRPPP	0.686 ± 0.0071
LFLRPSGLPTLL	0.69 ± 0.083
LYLCFDVVKDLG	0.582 ± 0.015
PSTLLPSLRFPP	0.654 ± 0.056
IRCHSERKSWMY	0.7 ± 0.065
CGVFAGRVGVRV	0.6003 ± 0.0017
WLGRGGACGVRW	0.696 ± 0.05
PRSAAQSQMRRK	0.711 ± 0.056
RRSSLGIYWIYS	0.61 ± 0.037
PPALRPNPPLPL	0.7769 ± 0.0016
KKKKNKKNKKQY	0.676 ± 0.074
VRDGGLCYLAQL	0.667 ± 0.019
QEESRARKGTQT	0.627 ± 0.034

Sequence	protein stability index
PPPRPTPAPPRV	0.65 ± 0.032
PSPPPPPPHPAP	0.694 ± 0.035
EREGGWEVNKWR	0.757 ± 0.079
KSPIPMRAPGNS	0.633 ± 0.053
HPTDPPFRNTTA	0.6996 ± 0.0043
CCVVFMGLGGGR	0.673 ± 0.0085
GIARRSHSNETV	0.766 ± 0.078
HSSLHLTRALCL	0.677 ± 0.043
IRRKYEGNKEQN	0.721 ± 0.069
GRRDGRWGQIVR	0.679 ± 0.0097
PSQHVHTSPLYS	0.695 ± 0.022
PPAPTPSPSPPP	0.68 ± 0.1
RLCLFPVAPLLS	0.599 ± 0.03
GACGSTLPASSR	0.668 ± 0.058
WSGGWAGGMLNE	0.641 ± 0.027
LPPPLPPPPPPV	0.651 ± 0.017
PFHCLPRPPCYW	0.708 ± 0.14
RRGAGCAAVGLG	0.618 ± 0.024
VLDCRDVSCHVL	0.661 ± 0.0081
RSPNSSPPPSIS	0.648 ± 0.014
LPGTTFTPPVAS	0.662 ± 0.008
PRPPAPPDPAPP	0.746 ± 0.072
TYLSAWQFCVAS	0.579 ± 0.049
SCSGVHYLGSSL	0.679 ± 0.023
PFVLVSDAHLIT	0.66 ± 0.035
GVEAGMGRTLWL	0.792 ± 0.099

Sequence	protein stability index
VSSPRLSPRLLY	0.775 ± 0.084
PSPTLGPVSFPH	0.703 ± 0.014
HSCYGHIRVSFC	0.705 ± 0.0098
DSFPAGVLVQSK	0.664 ± 0.017
IGSDFQLFLEGC	0.668 ± 0.044
SRPLFLSLFSSV	0.599 ± 0.14
WCGLRVGGGGMW	0.74 ± 0.017
RNTYKKREKNKK	0.7363 ± 0.0025
WSVGRVGGCGAR	0.704 ± 0.052
RTGKVKNINISI	0.71064 ± 0.00038
ASVWSLPSIVLT	0.519 ± 0.074
GWLGGGGVVWWG	0.718 ± 0.017
HNVLVYCGCALG	0.6032 ± 0.0036
MNVPRQLISRFV	0.683 ± 0.064
PIFPPLTSPSPP	0.68 ± 0.032
WFDCGSACFGYL	0.782 ± 0.056
GKIKKTTDKILI	0.639 ± 0.11
FFSFYPVYPLSA	0.527 ± 0.021
VGADVLAYRGVA	0.604 ± 0.025
PPLPFPSLPTPP	0.696 ± 0.042
VVRGPSGAGRAG	0.665 ± 0.052
NYNGVRRYNGFK	0.574 ± 0.052
SPPARLLASLSP	0.798 ± 0.2
